Ends that are not written are not given here.
Legend:
[1] = molecular target: T1, mouse HER3-Fc (recombinant mouse extracellular domain ErbB3/HER3 Fc chimera, R&D Systems) (mouse, UniProt Q61526 20-641); assay: ELISA, coated mouse HER3-Fc 250 ng/ml
T1 construct: extracellular domain; Bought protein; also called murine HER3; Fc part of the bought chimera not given

[2] = molecular target: T2, HER3 receptor on cells (HER3-transfected NIH 3T3 fibroblasts; SKBR3 cells; BxPC3 cells) (human, UniProt P21860 20-1342); assay: flow cytometry, HER3-transfected NIH-3T3 cells
T2 construct: whole, on cells; also called ErbB3
Experimental: (§1) After three washes in PBS-BSA 0.1%, cells were incubated with the fluorescein-conjugated anti-human IgG-Fragment Fc specific (Sigma) at 4° C. in the dark for 45 min. Cells were then washed three times and suspended in PBS for analysis using an EPICS flow cytometer (Beckman-Coulter, Fullerton, Calif.).

[3] = molecular target: T3, EGFR/HER4 on transfected NIH 3T3 cells (human, UniProt P00533 25-1210; Q15303 26-1308); assay: flow cytometry, EGFR/HER4-transfected NIH-3T3 cells
T3 construct: whole, on cells; NIH 3T3 cells transfected with both EGFR and HER4
Experimental: as §1

[4] = molecular target: T4, human HER4-Fc (recombinant human extracellular domain ErbB4/HER4 Fc chimera, R&D Systems) (human, UniProt Q15303 26-651); assay: ELISA, coated HER4-Fc 50 ng
T4 construct: extracellular domain; Bought protein; Fc part of the bought chimera not given
T4 sequence (looked up): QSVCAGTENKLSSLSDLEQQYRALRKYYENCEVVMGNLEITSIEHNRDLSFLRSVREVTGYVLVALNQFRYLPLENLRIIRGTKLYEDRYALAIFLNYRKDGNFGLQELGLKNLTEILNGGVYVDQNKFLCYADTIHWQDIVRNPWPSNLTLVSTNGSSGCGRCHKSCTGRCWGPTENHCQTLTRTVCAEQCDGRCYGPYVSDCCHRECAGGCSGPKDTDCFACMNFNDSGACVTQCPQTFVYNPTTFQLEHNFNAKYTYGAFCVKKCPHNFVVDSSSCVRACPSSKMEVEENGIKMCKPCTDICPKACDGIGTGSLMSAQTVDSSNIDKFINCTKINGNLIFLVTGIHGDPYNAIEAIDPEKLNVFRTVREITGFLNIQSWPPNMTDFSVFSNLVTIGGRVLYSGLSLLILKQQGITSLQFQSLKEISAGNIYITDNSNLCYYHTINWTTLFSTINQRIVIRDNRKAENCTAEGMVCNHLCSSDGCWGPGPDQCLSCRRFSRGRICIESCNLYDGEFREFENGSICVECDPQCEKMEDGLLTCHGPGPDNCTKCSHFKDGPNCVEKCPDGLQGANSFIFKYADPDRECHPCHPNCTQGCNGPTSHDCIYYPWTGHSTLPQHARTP
From the text: The bound IgG were detected by using HRP-F(ab′) 2 goat anti human IgG F(ab′)2 specific (Interchim).

[5] = molecular target: T5, EGFR on transfected NIH 3T3 cells (human, UniProt P00533 25-1210); assay: flow cytometry, transfected NIH 3T3 cells
T5 construct: whole, on cells
Experimental: as §1

[6] = molecular target: T6, HER2 on transfected NIH 3T3 cells (human, UniProt P04626 23-1255); assay: flow cytometry, transfected NIH 3T3 cells
T6 construct: whole, on cells
Experimental: as §1

[7] = molecular target: T3, EGFR/HER4 on transfected NIH 3T3 cells; assay: flow cytometry, transfected NIH 3T3 cells
Experimental: as §1

[8] = molecular target: T6, HER2 on transfected NIH 3T3 cells; assay: flow cytometry, HER2-transfected NIH-3T3 cells
Experimental: as §1

[9] = molecular target: T7, HER2/HER3 complex on transfected NIH 3T3 cells (human, UniProt P04626 23-1255; P21860 20-1342); assay: flow cytometry, HER2/HER3-transfected NIH-3T3 cells
T7 construct: whole, on cells; NIH 3T3 cells transfected with both HER2 and HER3; also called HER2-HER3 heterodimer
Experimental: as §1

[10] = molecular target: T5, EGFR on transfected NIH 3T3 cells; assay: flow cytometry, EGFR-transfected NIH-3T3 cells
Experimental: as §1

[11] = molecular target: T8, HER3 peptide 343-357 DFLITGLNGDPWHKI (human, also: cellulose-bound); assay: SPOT peptide array, antibody at 1 µg/ml
T8 construct: SPOT peptide
T8 peptide: Ac-DFLITGLNGDPWHKI

[12] = molecular target: T4, human HER4-Fc (recombinant human …); assay: ELISA, coated HER4-Fc 250 ng, anti-V5-HRP
Experimental: The purified human Fabs at various concentrations were incubated for 2 hours at 37° C. in coated wells at 250 ng HER3-Fc (or HER4-Fc). The bound Fabs were detected by using HRP-labeled anti-V5 antibody (Invitrogen). Revelation was done at 450 nm in the presence of TMB (Sigma). The Fabs were tested simultaneously for binding on HER3-Fc, HER4-Fc and on Bovine serum Albumin as control.

T1 sequence (Q61526 20-641, change not shown): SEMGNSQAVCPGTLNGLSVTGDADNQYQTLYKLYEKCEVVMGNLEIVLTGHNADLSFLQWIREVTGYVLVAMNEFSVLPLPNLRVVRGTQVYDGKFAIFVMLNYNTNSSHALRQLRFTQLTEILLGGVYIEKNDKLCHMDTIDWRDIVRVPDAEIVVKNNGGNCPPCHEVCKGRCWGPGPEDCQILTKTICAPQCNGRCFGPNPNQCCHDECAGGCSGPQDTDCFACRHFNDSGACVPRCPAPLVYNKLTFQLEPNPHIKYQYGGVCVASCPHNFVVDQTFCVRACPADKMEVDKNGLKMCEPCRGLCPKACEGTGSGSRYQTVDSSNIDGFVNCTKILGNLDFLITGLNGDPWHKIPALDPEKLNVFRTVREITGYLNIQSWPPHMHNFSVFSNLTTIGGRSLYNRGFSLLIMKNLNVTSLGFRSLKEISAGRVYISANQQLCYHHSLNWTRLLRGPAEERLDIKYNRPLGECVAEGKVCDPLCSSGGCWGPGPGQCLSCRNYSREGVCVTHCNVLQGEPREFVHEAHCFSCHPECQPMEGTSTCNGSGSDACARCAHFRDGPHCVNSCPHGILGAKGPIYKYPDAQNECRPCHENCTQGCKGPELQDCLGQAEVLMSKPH

Binder	binding result [1]	geometric mean [2]	geometric mean [3]	binding result [4]	binding result [5]	binding result [6]	binding result [7]	geometric mean [8]	geometric mean [9]	geometric mean [10]	binding result [11]	binding result [12]
mAb H3A-32 (purified human IgG) (antibody, V domains shown, expressed as human IgG1 in transiently transfected HEK 293 cells, protein A purified) VH: EVQLVESGGGLVQPGGSLRLSCAASGFTFDDYAMHWVRQAPGKGLEWVSGISWNSGSIGYADSVKGRFTISRDNAKNSLYLQMNSLRAEDTAVYYCAREGQWPNYGMDVWGQGTTVTVSS VL: not shown	binds	10.5	0.53	no binding (tested: 0.5 µg/ml)	no binding	no binding	no binding	0.44	68.8	0.26	–	–
mAb H3A-76 (purified human IgG) (antibody, V domains shown, expressed as human IgG1 in HEK 293 cells) VH: EVQLVESGGGLVQPGRSLRLSCAASGFTFDDYAMHWVRQAPGKGLEWVSGISWNSGSIGYADSVKGRFTISRDNAKDSLYLQMNSLRAEDTAVYYCAREGQWPNYGMDVWGQGTTVTVSS VL: QSVLTQPPSASGTPGQRVTISCSGSSSNIGSNSLNWYQQLPGTAPKLLIYSNNQRPPGVPDRFSGSRSGSSASLAISGLQSGDEGDYYCAAWDDSLKGYVFGTGTQLTVL	binds	11.5	0.53	no binding (tested: 0.5 µg/ml)	no binding	no binding	no binding	0.52	66.6	0.24	–	–
mAb H3A-81 (purified human IgG) (antibody, V domains shown, expressed as human IgG1 in HEK 293 cells) VH: EVQLVESGGGLVQPGGSLRLSCAASGFTFDDYAMHWVRQAPGKGLEWVSGISWNSGSIGYADSVKGRFTISRDNAKNSLYLQMNSLRAEDTAVYYCAREGQWPNYGMDVWGQGTTVTVSS VL: not shown	binds	10.6	0.53	no binding (tested: 0.5 µg/ml)	no binding	no binding	no binding	0.5	68.5	0.26	–	–
mAb H4B-05 (purified human IgG) (antibody, V domains shown, expressed as human IgG1 in HEK 293 cells) VH: EVQLVESGGGLVQPGRSLRLSCAASGFTFDDYAMHWVRQAPGKGLEWVSGISWNSGSIGYADSVKGRFTISRDNAKNSLYLQMNSLRAEDTAVYYCAREGQWPNYGMDVWGQGTTVTVSS VL: not shown	binds	7.85	0.52	no binding (tested: 0.5 µg/ml)	no binding	no binding	no binding	0.41	13.3	0.28	–	–
mAb H4B-121 (purified human IgG) (antibody, V domains shown, expressed as human IgG1 in HEK 293 cells) VH: EVQLVESGGGLVQPGRSLRLSCAASGFTFDDYAMHWVRQAPGKGLEWVSGISWNSGSIGYADSVKGRFTISRDNAKNSLYLQMNSLRAEDTAVYYCAREGQWPNYGMDVWGQGTTVTVSS VL: QSVLTQPPSVSAAPGQKVTISCPGSSSNIGNNYVSWYQQLPGTAPKLLIYDNNERPSGIPDRFSGSTSGTSATLDITDLQAEDEATYYCGAWDNTLGVYVLGTGTQLTVL	binds	12.3	0.67	no binding (tested: 0.5 µg/ml)	no binding	no binding	no binding	0.56	70.4	0.33	binds	–
U1-59 (Amgen/U3 Pharma-Daiichi Sankyo) (antibody, V domains shown) VH: QVQLQQWGAGLLKPSETLSLTCAVYGGSFSGYYWSWIRQPPGKGLEWIGEINHSGSTNYNPSLKSRVTISVETSKNQFSLKLSSVTAADTAVYYCARDKWTWYFDLWGRGTLVTVSS VL: not shown	–	9.32	0.59	–	–	–	–	0.42	15.5	0.25	–	–
Ab#6 (Merrimack Pharmaceuticals) (antibody, V domains shown) VH: EVQLLESGGGLVQPGGSLRLSCAASGFTFSHYVMAWVRQAPGKGLEWVSSISSSGGWTLYADSVKGRFTISRDNSKNTLYLQMNSLRAEDTAVYYCTRGLKMATIFDYWGQGTLVTVSS VL: QSALTQPASVSGSPGQSITISCTGTSSDVGSYNVVSWYQQHPGKAPKLIIYEVSQRPSGVSNRFSGSKSGNTASLTISGLQTEDEADYYCCSYAGSSIFVIFGGGTKVTVL	–	7.77	0.51	–	–	–	–	0.35	14.1	0.21	–	–
Fab H3A-32 (Fab, V domains shown, Fab made in E. coli periplasm with a V5 tag and a C-terminal 6xHis tag; also called H3A-32 (Fab format)) VH: EVQLVESGGGLVQPGGSLRLSCAASGFTFDDYAMHWVRQAPGKGLEWVSGISWNSGSIGYADSVKGRFTISRDNAKNSLYLQMNSLRAEDTAVYYCAREGQWPNYGMDVWGQGTTVTVSS VL: not shown	–	–	–	–	–	–	–	–	–	–	–	no binding
Fab H3A-76 (Fab, V domains shown, Fab made in E. coli periplasm with a V5 tag and a C-terminal 6xHis tag; also called H3A-76 (Fab format)) VH: EVQLVESGGGLVQPGRSLRLSCAASGFTFDDYAMHWVRQAPGKGLEWVSGISWNSGSIGYADSVKGRFTISRDNAKDSLYLQMNSLRAEDTAVYYCAREGQWPNYGMDVWGQGTTVTVSS VL: QSVLTQPPSASGTPGQRVTISCSGSSSNIGSNSLNWYQQLPGTAPKLLIYSNNQRPPGVPDRFSGSRSGSSASLAISGLQSGDEGDYYCAAWDDSLKGYVFGTGTQLTVL	–	–	–	–	–	–	–	–	–	–	–	no binding
Fab H3A-81 (Fab, V domains shown, Fab made in E. coli periplasm with a V5 tag and a C-terminal 6xHis tag; also called H3A-81 (Fab format)) VH: EVQLVESGGGLVQPGGSLRLSCAASGFTFDDYAMHWVRQAPGKGLEWVSGISWNSGSIGYADSVKGRFTISRDNAKNSLYLQMNSLRAEDTAVYYCAREGQWPNYGMDVWGQGTTVTVSS VL: not shown	–	–	–	–	–	–	–	–	–	–	–	no binding
Fab H4B-05 (Fab, V domains shown, Fab made in E. coli periplasm with a V5 tag and a C-terminal 6xHis tag; also called H4B-05 (Fab format)) VH: EVQLVESGGGLVQPGRSLRLSCAASGFTFDDYAMHWVRQAPGKGLEWVSGISWNSGSIGYADSVKGRFTISRDNAKNSLYLQMNSLRAEDTAVYYCAREGQWPNYGMDVWGQGTTVTVSS VL: not shown	–	–	–	–	–	–	–	–	–	–	–	no binding
Fab H4B-121 (Fab, V domains shown, Fab made in E. coli periplasm with a V5 tag and a C-terminal 6xHis tag) VH: EVQLVESGGGLVQPGRSLRLSCAASGFTFDDYAMHWVRQAPGKGLEWVSGISWNSGSIGYADSVKGRFTISRDNAKNSLYLQMNSLRAEDTAVYYCAREGQWPNYGMDVWGQGTTVTVSS VL: QSVLTQPPSVSAAPGQKVTISCPGSSSNIGNNYVSWYQQLPGTAPKLLIYDNNERPSGIPDRFSGSTSGTSATLDITDLQAEDEATYYCGAWDNTLGVYVLGTGTQLTVL	–	–	–	–	–	–	–	–	–	–	–	no binding
